Five molecules from patent publication US20050221426A1 can be followed below.

Some targets named below: GLP1R (UniProt P43220); Melanocortin 5 receptor (UniProt P33032); Melanocortin 1 receptor (UniProt Q01726); CRHR1 (UniProt P34998).
Assay in all cases: cell-based or functional assay
For assay [1], the target named is Vasoactive Intestinal Peptide 1 receptor (UniProt P32241).
Chain of Vasoactive Intestinal Peptide 1 receptor (P32241 31-457): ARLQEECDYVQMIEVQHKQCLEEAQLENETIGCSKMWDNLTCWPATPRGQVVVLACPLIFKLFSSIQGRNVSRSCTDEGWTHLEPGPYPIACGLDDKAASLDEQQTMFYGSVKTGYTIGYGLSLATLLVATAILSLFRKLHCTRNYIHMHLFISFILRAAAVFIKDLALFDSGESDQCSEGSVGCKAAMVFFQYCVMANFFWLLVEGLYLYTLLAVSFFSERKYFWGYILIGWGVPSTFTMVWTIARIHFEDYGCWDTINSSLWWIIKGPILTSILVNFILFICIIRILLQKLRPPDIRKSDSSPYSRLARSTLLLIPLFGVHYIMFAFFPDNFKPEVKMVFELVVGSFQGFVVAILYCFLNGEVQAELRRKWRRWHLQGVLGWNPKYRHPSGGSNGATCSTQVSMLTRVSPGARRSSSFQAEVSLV

Chain of Melanocortin 5 receptor (P33032 whole entry): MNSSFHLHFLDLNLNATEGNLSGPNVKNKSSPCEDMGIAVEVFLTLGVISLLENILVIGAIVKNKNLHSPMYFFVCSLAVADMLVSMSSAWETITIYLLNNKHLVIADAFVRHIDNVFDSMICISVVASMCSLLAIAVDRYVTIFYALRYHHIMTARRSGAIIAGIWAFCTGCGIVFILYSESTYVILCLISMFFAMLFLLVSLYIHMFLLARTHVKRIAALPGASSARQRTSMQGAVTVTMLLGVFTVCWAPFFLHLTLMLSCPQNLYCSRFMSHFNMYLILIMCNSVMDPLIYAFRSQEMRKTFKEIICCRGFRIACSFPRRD
Chain of CRHR1 (P34998 24-415 limits assumed): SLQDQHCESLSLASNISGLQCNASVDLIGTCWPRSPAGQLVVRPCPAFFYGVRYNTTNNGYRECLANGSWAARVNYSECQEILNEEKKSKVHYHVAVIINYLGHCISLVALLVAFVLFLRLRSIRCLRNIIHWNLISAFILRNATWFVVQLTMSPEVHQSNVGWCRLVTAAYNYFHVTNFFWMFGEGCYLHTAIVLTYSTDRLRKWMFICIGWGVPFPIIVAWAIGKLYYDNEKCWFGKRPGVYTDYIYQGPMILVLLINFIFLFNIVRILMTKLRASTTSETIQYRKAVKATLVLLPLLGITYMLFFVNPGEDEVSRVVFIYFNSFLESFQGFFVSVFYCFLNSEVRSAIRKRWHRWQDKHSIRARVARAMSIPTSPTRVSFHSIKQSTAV
Chain of Melanocortin 1 receptor (Q01726 whole entry): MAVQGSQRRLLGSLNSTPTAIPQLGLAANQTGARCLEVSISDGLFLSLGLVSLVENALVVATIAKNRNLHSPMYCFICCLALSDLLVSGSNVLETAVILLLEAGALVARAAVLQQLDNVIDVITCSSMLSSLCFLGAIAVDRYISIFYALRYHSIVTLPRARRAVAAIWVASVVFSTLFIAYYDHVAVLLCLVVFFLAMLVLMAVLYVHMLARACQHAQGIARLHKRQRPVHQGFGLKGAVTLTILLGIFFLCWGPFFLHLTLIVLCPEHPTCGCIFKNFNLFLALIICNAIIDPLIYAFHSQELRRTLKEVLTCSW
Chain of GLP1R (P43220 24-463 limits assumed): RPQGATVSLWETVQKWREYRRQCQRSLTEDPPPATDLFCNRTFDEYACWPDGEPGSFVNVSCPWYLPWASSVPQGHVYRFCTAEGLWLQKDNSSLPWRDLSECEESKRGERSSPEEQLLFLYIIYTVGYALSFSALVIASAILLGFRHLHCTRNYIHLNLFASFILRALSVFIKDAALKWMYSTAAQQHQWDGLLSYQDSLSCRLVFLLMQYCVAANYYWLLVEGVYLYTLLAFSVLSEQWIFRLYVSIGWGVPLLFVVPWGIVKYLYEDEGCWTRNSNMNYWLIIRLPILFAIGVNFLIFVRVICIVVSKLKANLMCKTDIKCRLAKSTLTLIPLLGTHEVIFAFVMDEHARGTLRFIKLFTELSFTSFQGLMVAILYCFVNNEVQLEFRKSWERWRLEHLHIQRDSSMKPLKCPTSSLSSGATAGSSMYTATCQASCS

Turning to GLP (peptide), the EC50 of cell response (CNG channel voltage dye assay; NY & H30602) with GLP1R was 0.003 nM.

In the case of “VIP (from UniProt P01282 125-152) (peptide)”, in assay [1], the EC50 of cell response (CNG channel voltage dye assay; MDC dye) is 0.0024 nM, the EC50 of cell response (CNG channel voltage dye assay; TB & H30602) was found to be 0.005 nM, the Fmax/Fb maximal response (CNG channel voltage dye assay; MDC dye) turned out to be 4.9 and the Fmax/Fb maximal response (CNG channel voltage dye assay; TB & H30602) worked out at 5.

In the assay with Melanocortin 5 receptor, “[Nle4-D-Phe7]α-MSH (from UniProt P01189 138-150) (peptide)” displayed an EC50 of cell response (CNG channel voltage dye assay; MDC dye) of 0.0029 nM, an EC50 of cell response (CNG channel voltage dye assay; NR & H30602) of 0.0013 nM, an EC50 of cell response (CNG channel voltage dye assay; NY & H30602) of 950 nM and an Fmax/Fb maximal response (CNG channel voltage dye assay; MDC dye) of 3.6. Also, in the assay with Melanocortin 5 receptor, the Fmax/Fb maximal response (CNG channel voltage dye assay; NR & H30602) came out at 3.2 and the Fmax/Fb maximal response (CNG channel voltage dye assay; NY & H30602) worked out at 3.4.

With “α-MSH (from UniProt P01189 138-150) (peptide)”, in the assay with Melanocortin 1 receptor, the EC50 of cell response (CNG channel voltage dye assay; MDC dye) turned out to be 820 nM, the EC50 of cell response (CNG channel voltage dye assay; TB & H30602) was determined as 770 nM, the Fmax/Fb maximal response (CNG channel voltage dye assay; MDC dye) turned out to be 5 and the Fmax/Fb maximal response (CNG channel voltage dye assay; TB & H30602) was 5.1.

SEEPPISLDLTFHLLREVLEMARAEQLAQQAHSNRKLMEII (peptide, UniProt P06850 154-194, looked up) [CRF]: in the assay with CRHR1, the EC50 of cell response (CNG channel voltage dye assay; MDC dye) came out at 0.028 nM, the EC50 of cell response (CNG channel voltage dye assay; NY & H30602) is 0.028 nM, the Fmax/Fb maximal response (CNG channel voltage dye assay; MDC dye) worked out at 4.2 and the Fmax/Fb maximal response (CNG channel voltage dye assay; NY & H30602) amounted to 4.3.
